Legend:
HNE [1] = biological target: T1, HNE (Homo sapiens, UniProt P08246); test: Kinetic studies of affinity for HNE; type: biochemical
T1 sequence (P08246 30-267): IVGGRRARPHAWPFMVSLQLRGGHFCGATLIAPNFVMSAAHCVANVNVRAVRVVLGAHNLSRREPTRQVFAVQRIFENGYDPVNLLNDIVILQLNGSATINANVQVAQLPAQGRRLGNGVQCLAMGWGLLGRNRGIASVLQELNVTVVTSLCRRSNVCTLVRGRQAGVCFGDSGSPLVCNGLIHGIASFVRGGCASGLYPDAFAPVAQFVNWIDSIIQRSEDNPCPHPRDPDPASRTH

HNE [2] = biological target: T1, HNE; test: Bronchoalveolar lavage of the lungs following HNE exposure (lung blood cell level); type: in vivo; details: mice
Description: A total of 14 animals were used in this study. Anesthetized mice received 0.1 ml of solution delivered by a blunt tip catheter to the opening of the trachea and the animals allowed to aspirate the solution into their lungs. All animals were exposed to the treatment for 2 hours and re-anesthetized. Bronchoalveolar lavage of the lungs was performed as described below. […] Target 2 (a potent HNE inhibitor developed by Zeneca in the early 1990s) when given with the HNE, reduced the average blood level in the lungs by 34% to 0.035 grams. Target C (the Zeneca molecule covalently attached to the N-terminus of the first 25 residues of the human surfactant B peptide) when given with the HNE reduced the average blood level in the lungs by 87% to 0.007 grams.
A set of animals was used to determine the optimal concentration of HNE for the study. […] The amount of HNE was reduced to 40 micrograms to maintain a maximal detrimental but survivable effect. The animals exposed to 40 micrograms of HNE were able to survive long enough to perform the complete study. All animals remaining in the complete study were exposed to 40 micrograms of HNE.
Target 2 (the Zeneca molecule) was given in a 70-fold molar excess relative to HNE. In the kinetic studies, Target 2 has 2 nM affinity. […] Accordingly, the Target C was given to the animals in a 100 fold molar excess relative to HNE in these studies.
Bronchio-Alveolar lavage (BAL) is performed by 1) anesthetizing the animals; 2) performing a tracheotomy on the animals and cutting open the chest and spreading the ribs to enable full lung expansion; 3) pressurizing lml of PBS buffer solution into the lungs through the tracheotomy catheter; 4) sucking the solution out of the lungs; 5) centrifuging the recovered solution to separate the red blood cell fraction from the liquid fraction; and 6) weighing the red blood cell fraction.

[3] = given with 40 micrograms HNE via trachea, 2 hours exposure, weight of BAL red blood cell fraction, Target 2 70-fold, Target C 100 fold molar excess relative to HNE

Target C: the Zeneca molecule covalently attached to the N-terminus of the first 25 residues of the human surfactant B peptide (FPIPLPYCWLCRALIKRIQAMIPKG)
Ki (HNE [1]): ~200 nM | loss of potency as compared to Target 2 (HNE [1]): approximately two orders of magnitude | Lung Blood Cell Level Measurements, Mouse group 1 (HNE [2]; [3]): 0 g | Lung Blood Cell Level Measurements, Mouse group 2 (HNE [2]; [3]): 0.007 g | Lung Blood Cell Level Measurements, Mouse group 3 (HNE [2]; [3]): 0.014 g | Lung Blood Cell Level Measurements, Group mean (HNE [2]; given with 40 micrograms HNE, 2 hours exposure, mean of the mouse groups): 0.007 g | average blood level in the lungs (lung blood cell level by weight) (HNE [2]; given with the HNE, 2 hours exposure): 0.007 grams | reduction of the average blood level in the lungs (HNE [2]; given with the HNE, relative to animals given HNE (0.053 grams)): 87%
